From US20210215708A1 (University of California, published 2021) come the findings set out here.

This test deals with BD1-EGFP-HOTag6 (UniProt O60885 44-168). Briefly: cell-based or functional assay.

B1: CRBN-EGFP-HOTag3 (other, not shown: large carriers)
chain: MAGEGDQQDAAHNMGNHLPLLPAESEEEDEMEVEDQDSKEAKKPNIINFDTSLPTSHTYLGADMEEFHGRTLHDDDSCQVIPVLPQVMMILIPGQTLPLQLFHPQEVSMVRNLIQKDRTFAVLAYSNVQEREAQFGTTAEIYAYREEQDFGIEIVKVKAIGRQRFKVLELRTQSDGIQQAKVQILPECVLPSTMSAVQLESLNKCQIFPSKPVSREDQCSYKWWQKYQKRKFHCANLTSWPRWLYSLYDAETLMDRIKKQLREWDENLKDDSLPSNPIDFSYRVAACLPIDDVLRIQLLKIGSAIQRLRCELDIMNKCTSLCCKQCQETEITTKNEIFSLSLCGPMAAYVNPHGYVHETLTVYKACNLNLIGRPSTEHSWFPGYAWTVAQCKICASHIGWKFTATKKDMSPQKFWGLTRSALLPTIPDTEDEISPDKVILCLGEIAKSLKEIAKSLKEIAWSLKEIAKSLKG
As for B1, the “brightness of the EGFP droplets after ARV-825” value was 10 fold.
